Test results as given in US20090227510A1.

Molecular target: HLA-A2 (human)
Experiment: HLA-A2 stabilization assay

**Q.** For EIWTFSYKV [J65, variant of FBP epitope E39 (H5→F, Y7→T)], which HLA-A2 stabilizing ability relative to E39 is on record?
**A.** 0.5 fold of E39
